These results are taken from US20240173425A1, “HUMAN CD33 ANTIBODIES AND GLUCOCORTICOID CONJUGATES” (Eli Lilly and Company, priority 2022, published 2024).

This test deals with primary human monocyte cells. Nature of the test: Antibody internalization (pHrodo Red, flow cytometry). It is filed as cell-based. Conditions: pHrodo-labeled antibodies 10 μg/mL, 2 hours at 37° C. The method, then: Exemplified anti-human CD33 antibodies were labeled with pHrodo™ Red, amine-reactive dye (Thermo Fisher, P36014). The pH-sensitive dye was a non-fluorescent when outside the cells but fluoresces brightly in acidic low-pH lysosomes. This property allows visualization and qualification of the internalization of an antibody by flow cytometry. Human PBMCs (500 K/well) were incubated on ice in FACS buffer for 30 min, to quiesce baseline internalization. Cells were stained with pHrodo-labeled antibodies (10 μg/mL) in FACS buffer for 1 hour on ice then transferred to 37° C. for 2 hours. Cells were then stained with the remaining panel of surface detection marker: CD45 mAb (clone HI30); CD11b (clone ICRF44); CD14 (clone M5E2).

B1: Gemtuzumab: Gemtuzumab (hIgG4PAA), comparator anti-CD33 antibody in the internalization assay (antibody, chains of the INN, looked up, V domains shown)
VH: EVQLVQSGAEVKKPGSSVKVSCKASGYTITDSNIHWVRQAPGQSLEWIGYIYPYNGGTDYNQKFKNRATLTVDNPTNTAYMELSSLRSEDTAFYYCVNGNPWLAYWGQGTLVTVSS
VL: DIQLTQSPSTLSASVGDRVTITCRASESLDNYGIRFLTWFQQKPGKAPKLLMYAASNQGSGVPSRFSGSGSGTEFTLTISSLQPDDFATYYCQQTKEVPWSFGQGTKVEVK
modifications: hIgG4PAA
notes: Gemtuzumab (hIgG4PAA), comparator anti-CD33 antibody in the internalization assay
Take B1: the “% Internalization” value is given as 50.55 ± 2.899%. In addition, under “listed as Gemtuzumab (hIgG4PAA)”, the “% Internalization” value was “about 50%”.
